# Source: the Immune Epitope Database (IEDB)
# Assays:
# HLA-A*02:01 [1] = test: IEDB peptide-MHC binding, purified MHC/competitive/fluorescence; filed as Kd, often an IC50 or EC50 that approximates it; ≥ and ≤ were set here for values at or beyond the usual limits of such assays; details: source organism: Vaccinia virus Copenhagen
# HLA-A*02:06 = test: IEDB peptide-MHC binding, purified MHC/competitive/radioactivity; filed as Kd, often an IC50 or EC50 that approximates it; ≥ and ≤ were set here for values at or beyond the usual limits of such assays
# HLA-A*02:03 = test: as above
# HLA-A*02:02 = test: as above
# HLA-B*40:01 = test: IEDB peptide-MHC binding, purified MHC/direct/fluorescence; filed as Kd, often an IC50 or EC50 that approximates it; ≥ and ≤ were set here for values at or beyond the usual limits of such assays; details: source organism: Influenza A virus (A/Moscow/343/2003(H3N2))
# HLA-A*69:01 = test: as above
# HLA-A*01:01 [2] = test: as above; details: source organism: Homo sapiens
# HLA-A*03:01 [3] = test: as above
# HLA-A*11:01 [4] = test: as above; details: source organism: Homo sapiens
# HLA-B*15:01 = test: as above; details: source organism: Homo sapiens
# HLA-B*58:01 = test: as above; details: source organism: Homo sapiens
# HLA-A*01:01 [5] = test: IEDB peptide-MHC binding, purified MHC/competitive/radioactivity; filed as Kd, often an IC50 or EC50 that approximates it; ≥ and ≤ were set here for values at or beyond the usual limits of such assays; details: source organism: Dengue virus 3 Martinique/1243/1999
# HLA-A*03:01 [6] = test: as above; details: source organism: Dengue virus 3 Martinique/1243/1999
# HLA-A*11:01 [7] = test: as above; details: source organism: Dengue virus 3 Martinique/1243/1999
# HLA-A*02:01 [8] = test: IEDB peptide-MHC binding, purified MHC/competitive/fluorescence; ≥ and ≤ were set here for values at or beyond the usual limits of such assays
# HLA-B*07:02 = test: IEDB peptide-MHC binding, purified MHC/direct/fluorescence; filed as Kd, often an IC50 or EC50 that approximates it; ≥ and ≤ were set here for values at or beyond the usual limits of such assays; details: source organism: Mycobacterium tuberculosis
# HLA-A*23:01 = test: IEDB peptide-MHC binding, purified MHC/competitive/radioactivity; filed as Kd, often an IC50 or EC50 that approximates it; ≥ and ≤ were set here for values at or beyond the usual limits of such assays
# HLA-A*30:02 = test: as above; details: source organism: Dengue virus 4 Philippines/H241/1956
# HLA-A*31:01 = test: IEDB peptide-MHC binding, purified MHC/direct/fluorescence; filed as Kd, often an IC50 or EC50 that approximates it; ≥ and ≤ were set here for values at or beyond the usual limits of such assays; details: source organism: Vibrio cholerae
# [9] = source organism: Vaccinia virus WR
# [10] = source organism: Lymphocytic choriomeningitis virus (strain Armstrong)
# [11] = source organism: Zaire ebolavirus
# [12] = source organism: SARS coronavirus Tor2
# [13] = source organism: Lassa virus Josiah
Sequence,Kd (HLA-A*02:06; [9]) [nM],Kd (HLA-A*02:03; [9]) [nM],Kd (HLA-A*02:02; [9]) [nM],further results
ALFGIKLPAL,–,–,–,Kd (HLA-A*02:01 [1]): 0.3 nM
IASILSLETV,47.3,92.8,234,–
AEDMGNGCF,–,–,–,Kd (HLA-B*40:01): 166 nM
VMAPDKPSL,–,–,–,Kd (HLA-A*69:01; source organism: Yellow fever virus): ≥ 20000 nM
SSEQTFMYY,–,–,–,Kd (HLA-A*01:01 [2]): 42.1 nM; Kd (HLA-A*03:01 [3]; source organism: Homo sapiens): 10200 nM; Kd (HLA-A*11:01 [4]): 263 nM; Kd (HLA-A*69:01; source organism: Homo sapiens): 8340 nM; Kd (HLA-B*15:01): 1420 nM; Kd (HLA-B*58:01): 2480 nM
YIMRVMANNV,14.2,1.96,23,–
NSLILLECFV,–,–,–,Kd (HLA-A*02:06; [10]): 4.17 nM; Kd (HLA-A*02:03; [10]): 46.6 nM; Kd (HLA-A*02:02; [10]): 1.21 nM
CTNTFVLKK,–,–,–,Kd (HLA-A*01:01 [5]): 5090 nM; Kd (HLA-A*03:01 [6]): 9.71 nM; Kd (HLA-A*11:01 [7]): 77.8 nM
VATDVPSAT,–,–,–,IC50 (HLA-A*02:01 [8]; [11]): ≥ 157000 nM
GALDVSASV,–,–,–,Kd (HLA-A*02:06; [12]): 2.27 nM; Kd (HLA-A*02:03; [12]): 2.34 nM; Kd (HLA-A*02:02; [12]): 0.718 nM
DVDIPTFNSL,9710,1030,1810,–
LLHDIGKPV,–,–,–,Kd (HLA-B*07:02): 11500 nM; Kd (HLA-A*69:01; source organism: Mycobacterium tuberculosis): ≥ 20000 nM
YLVQQESSFV,–,–,–,Kd (HLA-A*02:06; [12]): 386 nM; Kd (HLA-A*02:03; [12]): 17.5 nM; Kd (HLA-A*02:02; [12]): 12700 nM
TAIRAGYSI,7690,9200,14500,–
YWISNGTGNI,–,–,–,Kd (HLA-A*23:01; source organism: Dengue virus 3 Martinique/1243/1999): 165 nM
GIYNCCESNI,290,140,68.3,–

Sequence,Kd (HLA-A*02:06; [9]) [nM],Kd (HLA-A*02:03; [9]) [nM],Kd (HLA-A*02:02; [9]) [nM],further results
TANIFRGSY,–,–,–,Kd (HLA-A*30:02): 6.79 nM
QQLCTMERT,929,4520,≥ 77800,–
NITTAVKTV,–,–,–,IC50 (HLA-A*02:01 [8]; source organism: Sudan ebolavirus): 22800 nM
MMVILPDKI,909,16.3,69.2,–
SLYKGVYEL,–,–,–,Kd (HLA-A*02:06; [13]): 394 nM; Kd (HLA-A*02:03; [13]): 5.81 nM; Kd (HLA-A*02:02; [13]): 56.8 nM
GVLIAGIIL,951,1040,5240,–
QYIYMGEPL,–,–,–,Kd (HLA-A*23:01; source organism: Dengue virus 2 Jamaica/1409/1983): 205 nM
TYLHGIFDR,–,–,–,Kd (HLA-A*03:01 [3]; source organism: Vibrio cholerae): ≥ 20000 nM; Kd (HLA-A*31:01): 17.1 nM
YIESKAKQL,2990,439,144,–
LIQYRQQLEL,≥ 52600,19500,≥ 32800,–
PASISSVLT,1490,1360,1380,–
VLKAMHDKKI,≥ 69800,≥ 33900,≥ 48900,–
RVFKKIMSI,75.2,0.18,350,–
FANVISKIYT,1660,5310,7790,–
VKRLEELLP,–,–,–,IC50 (HLA-A*02:01 [8]; [11]): ≥ 375000 nM
SLTSINVQA,–,–,–,IC50 (HLA-A*02:01 [8]; source organism: West Nile virus NY-99): 503 nM
